{
  "source": "the nanobody polyreactivity screen of Harvey et al. (2022)",
  "data": [
    {"test": "yeast display, Sf9 membrane polyspecificity reagent, FACS + sequencing; frameworks hold sequencing errors", "in_short": "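Polyreactivity labels are assigned by the sorting gate from which each nanobody was recovered. The gates were low and high (top ~1%), set on anti-HA fluorescence for expression and streptavidin fluorescence for reagent binding. Before sorting, galactose-induced (36–48 hours) yeast display cells were stained for 1 hour at 4 °C with 10% biotinylated, detergent-solubilized Sf9 membrane reagent.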", "values": [
      {"sequence": "QVQLVESGGGLVQAGGSLRLSCAASGSTLGLNAMGWYRKAPGKERELVAAISQSGTSTYYADSVKGRFTISRDNAKNTVYLQMNSLKPEDTAVYYCAVEYTQWWTYDYWGQGTQVTVSS", "polyreactivity (PSR sort gate)": "low polyreactivity"},
      {"sequence": "QVQLVESGGGLVQAGGSLRLSCAASGSTLGQYVMGWYRQAPGKERELVAAISRRGGRTNYADSVKGRFTISRDNAKNTVYLQMNSLNPEDTAVYYCAAKFRIYRPSKYYYWGQGTQVTVSW", "polyreactivity (PSR sort gate)": "high polyreactivity"},
      {"sequence": "QVQLVESGGGLVQAGGSLRLSCAASGSTLGRYAMGWYIQAPGKERELVAAISRGGGSTYYADSVKGRFTISRDNAKNTVYLQMNSLKPEDTAVYYCAARQYIGSPPHRRRFDYWGQGTQVTVSS", "polyreactivity (PSR sort gate)": "high polyreactivity"},
      {"sequence": "QVQLVESGGGLVQAGGSLRLSCAASGSTLGRYAMGWYRQAPGKERELVAAISRGGGSTYYADSVKGRFTISRDNAKNTVYLQMNSLKPEYTAVYYCAVGIVHRDSRYYYWGQGTQVTVSS", "polyreactivity (PSR sort gate)": "high polyreactivity"},
      {"sequence": "QVQLVESGGGLVQAGGSLRLSCAASGSTLISYTMGWYRQAPGKERELVAAITSAVTTYYADSVKGRFTISRDNAKNTVYLQMNSLIPEDTAVYDCNAVPDTRSGELDYWGQGTQVTVSS", "polyreactivity (PSR sort gate)": "low polyreactivity"},
      {"sequence": "QVQLVESGGGLVQAGGSLRLSCAASGSTLKSYVMGWYRQAPGKERELVARISRSGGSTYYADSVKGRFTISRDNAKNTVYLQMNSLKPEDTAVYYCAAATPRLSYDYWGQGTQVTVSS", "polyreactivity (PSR sort gate)": "high polyreactivity"},
      {"sequence": "QVQLVESGGGLVQAGGSLRLSCAASGSTLLSNAMGWYTQAPGKERELVAAINYSGGRTYYADSVKGRFTISRDNAKNTVYLQMNSLKPEDTAVYYCNALSSGHGSSSRYDYWGQGTQVTVSS", "polyreactivity (PSR sort gate)": "low polyreactivity"},
      {"sequence": "QVQLVESGGGLVQAGGSLRLSCAASGSTLPANSMGWYRQAPGKERELVAAITITTDGSTYYADSVKGRFTISRDNAKNTVYLQMNSLKPEDTAVYYCAVARYRYHIRKMGYWGQGTQVTVSS", "polyreactivity (PSR sort gate)": "low polyreactivity"},
      {"sequence": "QVQLVESGGGLVQAGGSLRLSCAASGSTLPSNTMGWYRQAPGKERELVAAISRNGGSTYYADSVKGRFTISRDNAKNTVYLQMNSLKPEDTAVYYCNRVYRERYPYVLYGYWGQGTQVTVSS", "polyreactivity (PSR sort gate)": "high polyreactivity"},
      {"sequence": "QVQLVESGGGLVQAGGSLRLSCAASGSTLPVNAMGWYRQAPGKERELVAAINRDGSTNYADSVKRPFTFSRDNAKNTVYLQMNSLKQEDTAVYYCAADGFGYPGKRYDYWGQGTQVTVSS", "polyreactivity (PSR sort gate)": "low polyreactivity"},
      {"sequence": "QVQLVESGGGLVQAGGSLRLSCAASGSTLQRYTMGLYRPAPGKERELDAAITQSGGSTFYADSVKGRFTISRDNAKNTVYLQMNSLKPEDTAVYYCAAKLTTGYYYGVPRDYWGQGTQVTVSS", "polyreactivity (PSR sort gate)": "high polyreactivity"},
      {"sequence": "QVQLVESGGGLVQAGGSLRLSCAASGSTLQVYARGWYRQAPGKERELVAASSKSGGRTYYADSVKGRFTISRDNAKNTVYLQMNSLKPEDTAVYYCAADVGTAQSTYGYWGQGTQVTVSS", "polyreactivity (PSR sort gate)": "high polyreactivity"},
      {"sequence": "QVQLVESGGGLVQAGGSLRLSCAASGSTLRAYAMGWSRQAPGKERELVAAINVSSGGTYYADSVKGRFTISRDNAKNTVYLQMNSLKPEDTAVYYCAARARWAGLRYTRYYYWGQGTQVTVSS", "polyreactivity (PSR sort gate)": "high polyreactivity"},
      {"sequence": "QVQLVESGGGLVQAGGSLRLSCAASGSTLRAYTMGWYRQAPGKERELVATITRRGGTTYYADSVKGRFTISRDNAKNTVYLQMNSLKPEDTAVYYCAAKWYSTHRYDYWGQGTQVTVSS", "polyreactivity (PSR sort gate)": "high polyreactivity"},
      {"sequence": "QVQLVESGGGLVQAGGSLRLSCAASGSTLRRYAMGWYRQAPGKERDLVAAITSRGTDTYYADSVKGRFTISRDNAKNTVYLQMNSLKPEDTAVYYCAASWVAGGHYGYDYWGQGTQVTVSS", "polyreactivity (PSR sort gate)": "high polyreactivity"},
      {"sequence": "QVQLVESGGGLVQAGGSLRLSCAASGSTLRWNAMGWYRQAPGKERELVAAITYSGGSTYYADSVKGRFTISRDNAKNTVYLQMNSLKPEDTAVYYCAADSYRYRPGYGPVLYDYWGQGTQVTVSS", "polyreactivity (PSR sort gate)": "high polyreactivity"},
      {"sequence": "QVQLVESGGGLVQAGGSLRLSCAASGSTLSDNAMGWYRQAPGKERELVASISWSGGTYYADSVKGRFTISRDNAKNTVYLQMNSLKPEDTAVYYCAAYIYYNYSRQYWYDYWGQGTQVTVSS", "polyreactivity (PSR sort gate)": "low polyreactivity"},
      {"sequence": "QVQLVESGGGLVQAGGSLRLSCAASGSTLSFKAMGWYRQAPGKERELVAGITYSGGSTYYADSVKGRFTISRDNAKNTVYLQMNSLKPEDTAVYYCNKASGVYYGHLDYWGQGTQVTVSS", "polyreactivity (PSR sort gate)": "low polyreactivity"},
      {"sequence": "QVQLVESGGGLVQAGGSLRLSCAASGSTLSFNAMGWYRQAPGKERELVAGITYSGGSTYYADSVKGRFTISRDNAKNTVYLQMNILKPEDTAVYYCNKASGVYYGHLDYWGQGTQVTVSS", "polyreactivity (PSR sort gate)": "low polyreactivity"},
      {"sequence": "QVQLVESGGGLVQAGGSLRLSCAASGSTLSFNAMGWYRQAPGKERELVAGITYSGGSTYYADYVKGRFTISRDNAKNTVYLQMNSLKPEDTAVYYCNKASGVYYGHLDYWGQGTQVTVSS", "polyreactivity (PSR sort gate)": "low polyreactivity"},
      {"sequence": "QVQLVESGGGLVQAGGSLRLSCAASGSTLSKNAMGWYRQAPGKERELVAAMTRRGGSTSYADSVKGRFTMSRDYAKNTVYLQMNSLKPEDTAVYYCNAVSKYDYGYWGQGTQVTVSS", "polyreactivity (PSR sort gate)": "high polyreactivity"},
      {"sequence": "QVQLVESGGGLVQAGGSLRLSCAASGSTLSQNAMGWSRQAPGKEREFVADISGSGDSTYYADSVKGRITISRDNAKNTVYLQMNSLKPEDTAVYYCAAEELSHYEYWGKGTQVTVSS", "polyreactivity (PSR sort gate)": "low polyreactivity"},
      {"sequence": "QVQLVESGGGLVQAGGSLRLSCAASGSTLSSNAMGWYRQAPGKVWELVAAISYRGGSTYYADSVKGRFTISRDNAKNTVYLQMNSLKPEDTAVYYCAAYLGPYVRYYYWGQGTQVTVSS", "polyreactivity (PSR sort gate)": "high polyreactivity"},
      {"sequence": "QVQLVESGGGLVQAGGSLRLSCAASGSTLSYNAMGWYRQAPGKERELVAAISWSDGGTYYADSVKGRFTISRDTAKNTVFLQMNSLKPEDTAVYYCAARRGVRYSKFGYYYWGQGTQVTVSS", "polyreactivity (PSR sort gate)": "high polyreactivity"},
      {"sequence": "QVQLVESGGGLVQAGGSLRLSCAASGSTLTPNAMGWYRQAPGKERELVAAISRSGGSTYYADSVKGRFTISRDNAKNTVYLQRNSLKPEDTAVYYCRGYYIGIRAYGYWGQGTQVTVSS", "polyreactivity (PSR sort gate)": "high polyreactivity"},
      {"sequence": "QVQLVESGGGLVQAGGSLRLSCAASGSTLTYNAMGWYRQAPGKERELVADITS", "polyreactivity (PSR sort gate)": "low polyreactivity"},
      {"sequence": "QVQLVESGGGLVQAGGSLRLSCAASGSTLTYYVMGWSRQAPGKERELVAAITDSGGGTYYADSVKGRFTISRDNAKNTVYLQMNSLKPEDTAVYYCNAYYPYGLASFYYWGQGTQVTVSS", "polyreactivity (PSR sort gate)": "low polyreactivity"},
      {"sequence": "QVQLVESGGGLVQAGGSLRLSCAASGSTLVANAMGWYRQAPGKERELVAAISSGGITYYADSVKGRFTISRDNAKNTVYLQMHSLKPEDTAVYYCAARIRGTWKYGYWGQGTQVTVSS", "polyreactivity (PSR sort gate)": "low polyreactivity"},
      {"sequence": "QVQLVESGGGLVQAGGSLRLSCAASGSTLVFSAMGWYRQAPGKERELVAAITRSGGSTYYADSVKGRFTITRDNAKNTVYLQMNSLKPEDTAVYYCAADERYIYERDSWGQGTQVSVSS", "polyreactivity (PSR sort gate)": "low polyreactivity"},
      {"sequence": "QVQLVESGGGLVQAGGSLRLSCAASGSTLVGYVMGWYRQAPGKERELVAAITTVGSTYYADSVKGRFTISRDNAKNTVYLQMNSLKPEDTAVYYCNAVRAYVDLRTGHFRGDYWGQGTQVTVSS", "polyreactivity (PSR sort gate)": "low polyreactivity"},
      {"sequence": "QVQLVESGGGLVQAGGSLRLSCAASGSTLVLNAMGWYRQAPGKERELVAAISRGGGSTSYADSVKGRFTISRDNAKNTVYLQMNSLKPEDTAVYYCNAYTYYHANHEQGFGYWGQGTQVTVSS", "polyreactivity (PSR sort gate)": "low polyreactivity"},
      {"sequence": "QVQLVESGGGLVQAGGSLRLSCAASGSTLVLNAMGWYRQAPGKERELVAAITISGDTTYYADSVKGRFTISRDNAKNTVYLQMNSLKPEDTAVYYCAVDSFLVYSAVRPYDYWGQGTQVTVSS", "polyreactivity (PSR sort gate)": "low polyreactivity"},
      {"sequence": "QVQLVESGGGLVQAGGSLRLSCAASGSTLVSNAMGWYIQAPGKEREFVAAINSSGSRTYYADSVKGRFTISRDNANNTVYLQMNSLKPEDTAVYYCAAGYWNDFDWGQVTQVTVSS", "polyreactivity (PSR sort gate)": "low polyreactivity"},
      {"sequence": "QVQLVESGGGLVQAGGSLRLSCAASGSTLVWNAMGWYRQAPGKERELVAGITTSGGSTSYADSVKGRFTISRDNAKNTVYLQMNSLKQEDTAVYYCAVDAAIYTNKLDYWGQGTQVTVSS", "polyreactivity (PSR sort gate)": "low polyreactivity"},
      {"sequence": "QVQLVESGGGLVQAGGSLRLSCAASGSTLWFNAMGWYRQAPGKERELVAAINWSGGSTYYADSVKGRFTISRDNAKNTVYLQMNSLKPEDTAVYYCAAVYQYVHYVWYDYWGQGTQVTVSS", "polyreactivity (PSR sort gate)": "low polyreactivity"},
      {"sequence": "QVQLVESGGGLVQAGGSLRLSCAASGSTLWGYVMGWYRQAPGKERELVAVISKSGGSTYYADSVKGRFTISRDNANNTVYLQMNSLKPEDTAVYYCATRWPYRSDWGQGTQVTVSS", "polyreactivity (PSR sort gate)": "high polyreactivity"},
      {"sequence": "QVQLVESGGGLVQAGGSLRLSCAASGSTLWRYAMGWYRQAPGKERELVAGISRGGGSTYYADSVKGRFTISRDNANKTVYLQKNSLKPEDTAVYYCAADDPLYSISTGDYWGQGTQVTVSL", "polyreactivity (PSR sort gate)": "low polyreactivity"},
      {"sequence": "QVQLVESGGGLVQAGGSLRLSCAASGSTLWVYAMGSYRQAPGKERELVAAITQSTGDTHYADSVKGRFTISRDNAKNTVYLQMNSLKPEDTAVYYCAADSYLSVYDPYGYWGQGTQVTVSS", "polyreactivity (PSR sort gate)": "low polyreactivity"},
      {"sequence": "QVQLVESGGGLVQAGGSLRLSCAASGSTLWYYAMGWYRQAPGKERELVADITSSGNTNYADSVKGRFTISRDNAKNTVYLQMNSLKPEDTAVYYCAADSANYQWYLSWQKDDYWGQGTQVTVSS", "polyreactivity (PSR sort gate)": "low polyreactivity"},
      {"sequence": "QVQLVESGGGLVQAGGSLRLSCAASGSTLYFNAMGWYRQAPGKERELVATITSGGSTYYADSVKGRFTISRDNAKNTVYFQMNSLKPEDTAVYYCNADFGSYATNGMTPLYDYWGQGTQVTVSS", "polyreactivity (PSR sort gate)": "high polyreactivity"},
      {"sequence": "QVQLVESGGGLVQAGGSLRLSCAASGSTLYKYAMGWYRQAPGKERELVATITRTDSTNYADSVKGRFTISRDNAKNTVYLQMNSLKPEDTAVYYCNRGFDWWYRYRHYDYWGQGTQVTVSS", "polyreactivity (PSR sort gate)": "low polyreactivity"},
      {"sequence": "QVQLVESGGGLVQAGGSLRLSCAASGSTLYPNAMGWYRQAPGKERELVAAIRRRGGSTYYADSVKGRFTISRDNAKNTVYLQMNSLKPEDTAVYYCAAYPYKQDPTLVHYDYWGQGTQVTVSS", "polyreactivity (PSR sort gate)": "low polyreactivity"},
      {"sequence": "QVQLVESGGGLVQAGGSLRLSCAASGSTLYPYDMGWYRQAPGKERELVAAIDSGGSTNYADSVKGRFTISRDNAKNTVYLQMNSLKPEDTAVYYCAADASGENDYWGQGTQVTVSS", "polyreactivity (PSR sort gate)": "low polyreactivity"}
    ]}
  ]
}
